From the DeepSol protein solubility set

Assay: soluble on expression in E. coli; label from the status in PepcDB or PDB records
For “MKVGIVLNPHAGGGFDDLKRRVVVRVLKKLDGEFVTADKVAELLGIEAERVKVKETNTRLDTVNLVKALDGNVDVIAVFGGDGTVSDAASAKPQTPLLCIGIGTTNVSPALCPPDFDRLEEVEMRGLVVKFGGEERVAFNDVVVGSTILSTVDGKRVQVDARRYMRGEKVIATPRKFRARVEVGERVVEGVFGNIFVAMTDRRFLGKGIAGGASLSAFLGFKGVVACVSEGIVVSTYTKEDLRRVEPIVTSTISFDDEVVKIDADEVVSCDGNPLGVGRAEVAIEDGVVRVLKPFKEEE”, the “soluble on expression in E. coli” value was “soluble”.
With “MSNIKKYIIDYDWKASIEIEIDHDVMTEEKLHQINNFWSDSEYRLNKHGSVLNAVLIMLAQHALLIAISSDLNAYGVVCEFDWNDGNGQEGWPSMDGSEGIRITDIDTSGIFDSDDMTIKAA” the “soluble on expression in E. coli” value was “soluble”.
In the case of “MRGSHHHHHHGSIEGRMEKINYLLPEESAEMTLNQVKSLRQIEGRLRKLFSLKNYQEVMPPSFEYTQLYTALESNGKTFNQEKMFQFIKHEGQSITLRYDFTLPLVRLYSQIKDSTSARYSYFGKIFRKEKRHKGRSTENYQIGIELFGESADKSELEILSLALQVIEQLGLNKTVFEIGSAKFFQRLCQLADGSTELLTELLLKKDLSGLNAFIEKNNFSKELRGLLKEIFITNELSRLENLVTNTKDDVLISSFDQLKEFSEKLSMIKPIIIDLGMVPKMDYYTDLMFKAYSSAANQPILSGGRYDQLLSNFQEEAFAIGFCCHMDTILKALERQELEEDND”, the “soluble on expression in E. coli” value is reported as “soluble”.
With “MLALFYNKKLFEQAGLTKPPETWDELLEYAKIITEKTGKPGLAIYLGGFNRYVPVAVSNGAPKPWFEKPEDASWFDNPVVRETLTWYINLYRKGKVEREKKGLPPYVVAPEDVGAGWLGDAFGQQKVAMVISGNWMIPFLADQFPNFKYGEDWDIAPLPAGKNGRVTMVYTVILGINSKTKHPKEAWKFVEFILGPRGQKELVVKAGQTLPSMKGFENDP” the “soluble on expression in E. coli” value was “not soluble”.
With “PTSLEKLPSADVKGQDLYKTQPPRSDAQGGKAYLKWICITCGHIYDEALGDEAEGFTPGTRFEDIPDDWCCPDCGATKEDYVLYEEK” the “soluble on expression in E. coli” value was “soluble”.
With “MGSDKIHHHHHHMKQMKIPATYMRGGTSKGVFFALKDLPLNAQQPGPARDALLLRVIGSPDPYGKQTDGMGGATSSTSKTVILDKSQRDDHDVDYLFGQVAIDKPFVDWSGNCGNLTAAVGAFAITQGLVDSAKIPDNGIAVVKIWQANINKTIIAHVPMVDGEVQELGDFELDGVTFPAAEVLVEFVDPADGEGDMFPTGNLVDKLEVPGEPVFDATFINAGIPTIFLKAEQLGYEGTELQEAINGDAAALERFETIRAHGALQMGLIQSLDEAAGRQHTPKIAFVAPAKAYTSSSGKQIAAEEIDLHVRALSMGKLHHAMMGTAAVAIGTAASIPGTLVNQAAGGQARESVRFGHPSGTLKVGAKASEQEGRWQVEKVSMSRSARVLMQGWVCVPESLG” the “soluble on expression in E. coli” value was “not soluble”.
For “MKKPNHSGSGQIRIIGGQWRGRKLPVPDSPGLRPTTDRVRETLFNWLAPVIVDAQCLDCFAGSGALGLEALSRYAAGATLIEMDRVVSQQLIKNLATLKAGNARVVNSNAMSFLAQKGTPHNIVFVDPPFRRGLLEETINLLEDNGWLADEALIYVESEVENGLPTVPANWSLHREKVAGQVAYRLYQHEAQGESDAD”, the “soluble on expression in E. coli” value was “not soluble”.
For “MGSDKIHHHHHHDSVKTNTNPQQAIQGEWISYSESKINLPKTTSAADAHKLLDLTASTSEKIKFDKKKVTLATNEYDYKLGRQIIIGSYSYDYKLEHGQDILKFDTTSSDIGGNVYYRVGSKLEKEKTKEINDKEAKEKKSVTHLNEVWKAKTDIIEKSLKEAMIGTWSGHFKAVATTGQGVAWAPGMQTLTFDGGTNLSFHASSDSLTNFDQIVIHNAYASYQPNGILGLEPSDHIPVDPKKLLNIIKDLTAEQMFSRIKYIAFSYDVTTDTGTISQSFSPSELSYKNGKLSFDTALLITQCGDEGVQISGDVSKTE”, the “soluble on expression in E. coli” value was “not soluble”.
In the case of “AHHHHHHGSKWEEWKPFYERIVKEMGYSIEEDRRAAELLRDILMENDNYIIKEELNSIIMQKVYVFGAGPNLEEALKKGDFKDGTKIAADGATSALLEYGITPDVVVTDLDGRIRDLLEASRKAVMVVHAHGDNMDKLPLVVEFPLVLGTCQTEPLDIVYNFGGFTDGDRAAFLAEEMGAKEIVLVGFDFSGIVGKWSKPWLRDHTPAWESKMKKLKFARELLEWLKNNGRAKIIEFSI”, the “soluble on expression in E. coli” value is reported as “not soluble”.
For “MGSSHHHHHHSSGLVPRGSHMASMAGLGHPAAFGRATHAVVRALPESLGQHALRSAKGEEVDVARAERQHQLYVGVLGSKLGLQVVELPADESLPDCVFVEDVAVVCEETALITRPGAPSRRKEVDMMKEALEKLQLNIVEMKDENATLDGGDVLFTGREFFVGLSKRTNQRGAEILADTFKDYAVSTVPVADGLHLKSFCSMAGPNLIAIGSSESAQKALKIMQQMSDHRYDKLTVPDDIAANCIYLNIPNKGHVLLHRTPEEYPESAKVYEKLKDHMLIPVSMSELEKVDGLLTCCSVLINKKVDS”, the “soluble on expression in E. coli” value was “soluble”.
In the case of “RYLLRATTDDLYLVHDRQVAPFDGDLNDYYKWLTEQQKAERKEAQALQPVKDTANSAAAKKEQKRREAEFRKLTAPIRKTLTQLENKMDKLGVALAEAEEQLADNSLYEAENKAKLNEVLALQASSKSELEEVEMEWMSAQEELEQMELEFNQ”, the “soluble on expression in E. coli” value is reported as “not soluble”.
For “MNDATPDQLRTGPSRETPRFQQIVQDIKRRIADGSLSEHAALPSERRIAEETGISRMTARRALDALEAEGLVYSADRRGRFVSPKRVSYDVSNLVSFVADAESRGTALGIEVIRAQEGKADPALAARLELEPGAAIHEYTRLFRQDGHAIFVETEYVDARRCPDFLSHDLHQSTTRLLESQYDLVARTGDIVIRMRGAHPEETHLLGLAQSQSGIELTQVIRDASGRPFCFGRQFWRGEMAEFSARAIVGGSIHG”, the “soluble on expression in E. coli” value was “not soluble”.
For “MGHHHHHHSHGTRSKLSRHGSGADSDYENTQSGDPLLGLEGKRFLELGKEEDFHPELESLDGDLDPGLPSTEDVILKTEQVTKNIQELLRAAQEFKHDSFVPCSEKIHLAVTEMASLFPKRPALEPVRSSLRLLNASAYRLQSECRKTVPPEPGAPVDFQLLTQQVIQCAYDIAKAAKQLVTITTREKKQ”, the “soluble on expression in E. coli” value was “soluble”.
With “MSHPRYKSLLNRDRIVEAFESGVLAKGGMIAHGRGETFDYLIGESTTDAALNSIKVSAALLVLAENPVISVNGNSVALAKDEFVELAKELNGKIEVNLFYRTTEREEKIKDVFESDINGGIVLLGIDNADKQIPGIDHLRGKVSESGIYTSDVVLVPLEDGDRAEALVKMGKTVIAIDLNPLSRTARKSTISIIDELTRCIPLITEYVREYKKMDRAELLKIVENYDNEENLRNILNLISKRLTSVDLEHHHHHH” the “soluble on expression in E. coli” value was “not soluble”.
In the case of “MNNFLKHNDWARDPAFNHFWRHYDFSNQWIKQHTDASRQVQMQMVQRDNLSTEQCFSDSEEPEVIERLSRCEIYSEIENEESDIEEMSEEMKAFFAKTQEHRQKFSIRGRIEQSTDHRNASAEFIAKREKAKKDYGESATKILAMESTLAMKFESEYSQNPQLWPNIPFRF”, the “soluble on expression in E. coli” value is reported as “not soluble”.
In the case of “MNKVSVVLPTYNCGTYVGVAVESVLQQTYSNYELIIVNDGSTDETDQALAPYLCNNGHIRYIKQGNKGHAGARNTGIRAATGDVIAFIDSDDKWLPEKLGEQVQAMEEDPEVGLVHCNVYGFGENQEVQVRGPLLTQEQLQGYSGYIFDNLYFRKIIITTTTVMIRKSCIDDVGMFDENMTRYGSEDRELFLRILWKYKARYVNKPLAMYRNRSDSEGQNYERMIKGQEYVYEKITSLYGLPQSSKRAVMSKMYQEWAREFYAKGRFADGLTNQVKAIRANPIDMNAYFALKRYARFLFSRATLEHHHHHH”, the “soluble on expression in E. coli” value is reported as “not soluble”.
In the case of “MRLTSKGRYAVTAMLDVALNSEAGPVPLADISERQGISLSYLEQLFSRLRKNGLVSSVRGPGGGYLLGKDASSIAVGEVISAVDESVDATRCQGKGGCQGGDKCLTHALWRDLSDRLTGFLNNLEHHHHHH”, the “soluble on expression in E. coli” value is reported as “not soluble”.
For “MGSDKIHHHHHHVRFATKFDLLSHIRLNAALTSARFDAEQGLWLLRLENGEQLKASFFICSAGPLSEPRYPDIPGMDTYEGRLFHSARWDHDYPLNGKRVAVIGTAASAVQIIPHIAPLAARLYVCQRSPNWIIPRLNHVYAPWEKALFRLKPIAKTNRFLLYWLHEMNRLSFNPGGFMARIGRELAEWHLRRQVIDPRLRGALRPGYPLGCKRVLLSNDYYPTLMRPNVELIDTPIDRIDPGGIVTRDGQKREVDVIICATGFNVKRMLSVEIRGLQGYRLNEAWAREPKAYQGVTVASFPNLFILLGPNTGQGHTSAILFIEAQVNYALKCIQEIARQQKRFLSVKPEAMNRYNEELQKTLSTSVWAAGCRSWYKTESGKIIGIYPGFSFQYAKQLREPRFEDYVMC”, the “soluble on expression in E. coli” value was “not soluble”.
With “MRPLTRLVPLALLLLAGCAGPLPQPDPQMAWVELRSAPANTLLAERLDGERLSDGRYFQVTPGRHVLEVRFQYELYGGSGGGGGGFGEPVQINCYQQVVYDGFEAGRRYRLEVRPQLRRALALLSDERGEVVARSNFQTSRCPPY” the “soluble on expression in E. coli” value was “not soluble”.
With “MLSNQLHFAKPTARTPLVVLVHGLLGSGADWQPVLSHLARTQCAALTLDLPGHGTNPERHCDNFAEAVEMIEQTVQAHVTSEVPVILVGYSLGGRLIMHGLAQGAFSRLNLRGAIIEGGHFGLQENEEKAARWQHDQQWAQRFSQQPIEHVLSDWYQQAVFSSLNHEQRQTLIAQRSANLGSSVAHMLLATSLAKQPYLLPALQALKLPIHYVCGEQDSKFQQLAESSGLSYSQVAQAGHNVHHEQPQAFAKIVQAMIHSIID” the “soluble on expression in E. coli” value was “soluble”.
For “MRDPFMEALGLKVLHLAPGEAVVAGEVRADHLNLHGTAHGGFLYALADSAFALASNTRGPAVALSCRMDYFRPLGAGARVEARAVEVNLSRRTATYRVEVVSEGKLVALFTGTVFRLGGDGDDVPAGTGNLAPREA”, the “soluble on expression in E. coli” value was “soluble”.
For “YDNLAHNLAVERGLTAGVLGSQGKTEIVQKLTQQRKKVDDAVNSLVQLNTPLISSSDSYDLLQDVQVQLNRLNQVRQGVDRLSPQIAPFGYYSNLNQLIIDNIDILIAQTQSRELGTLGDALISVIVMKERAGQARGALNGVFAKGSATSVLFSNIEGYIQSGDYASRKAQIAFPEQYRQSLQSHQSNPAWKKVEQVQQSFLNQSANLDNIQGPQATEWFPMATERIGLMNQLRNQMVDQMLSAA”, the “soluble on expression in E. coli” value was “not soluble”.
For “MVLSIERKRAIVQYVKSRKIATVSELAKHFEVHEATIRRDLTSLEKDKKLKRTHGGVMIEEKVVSEPNWKKRSEVRYEEKQRIATLAATMVKDGDTIILDAGTTTGHIATALKDRSKLTVITNDINVASIMRFSPSKVIVTGGVIYPETFILNGMITSGTLQSIHVHKAFVTTPALDIDKGLMHYDEYLIPAKQQMLHSADEVILVTDHTKFGRISLYKYAALDEISSIITGKEIDPVLKEQFEEKGMQIYTTLEHHHHHH”, the “soluble on expression in E. coli” value was “soluble”.
With “MSLSRFQFVADHLHAFEVKWLCAGVEVARSSFYAWLAGAEGRAARKAADEALAARIRMVHDEDNTYGAPRITAELNDSVPDGERVNHKRVARVMRDAGIAGYRRRRRVKTTTPDPAKQKVPDLLKRDFTAPAPNEKYVGDITYLPLATGSNLYMATVIDCFSGRVAGWAIAEHMRTELVEDALKAADALRGSLAGAVFHSDHGSQYTSTDFASLCEKLGVTQSMGGVGSSADNALAESFNASLKREVLQDRSHWPDSATCRRQVFRWLVRYNLRRRHSRCRYSSPVSYERSHAPATLPEAAEGHHHHHH” the “soluble on expression in E. coli” value was “not soluble”.
For “MSLSLDTAREAVQKKPLLYDKGGEEHYNVISAFIKSMRGSDPDGALYWLARMIEAGEDPIFILRRMVILASEDIGNADPRALQVAVTALQGFQLVGMPEGRIIIGQAVTYLATAPKSNASYVGIDAALAEVRKSGALPVPLHIRNAPTRLMKDLGYGTGYRYAHDYAEGYVAQDYLPDQIKGRKYYDPTGHGYEKSIKERMEWLKGKKEGHHHHHH”, the “soluble on expression in E. coli” value was “not soluble”.
